Data reported in the supplement of paper PMC12042874.
± gives the uncertainty stated by the source.

Experiment: amyloid nucleation score (Sup35N fusion, yeast selection) (log enrichment); library NNK2; higher = more nucleation; inactive = no reads after selection
Procedure, shortened: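 On medium lacking adenine and uracil, psi-negative yeast expressing peptides of 20 random codons fused to Sup35N were grown 7 days at 30°C after a 24-hour induction with 100 μM copper sulfate. Illumina sequencing of input and output plasmid inserts gave the reads, and sequences under 100 input reads were excluded. The nucleation score is the DiMSum log enrichment of output over input reads, centred on the mode score of non-aggregating sequences.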

In the case of FIAYMYPMVIWIPMRFLINQ, the amyloid nucleation score is reported as “inactive”.
With RRRGVLLTRPLKRQLVK the amyloid nucleation score was “inactive”.
In the case of QDLVGGCQLSHHHCNLSCGF, the amyloid nucleation score is reported as “inactive”.
With SFILD the amyloid nucleation score was “inactive”.
With TSYACRVIAMRVVCPCRQLR the amyloid nucleation score was “inactive”.
For VYLINRWVYPWEFIVHIIRV, the amyloid nucleation score was “inactive”.
In the case of WIDGVFTIVSFYMELEGIRV, the amyloid nucleation score is reported as “inactive”.
For YSIKQAY, the amyloid nucleation score was “inactive”.
For SLLLMDYFLYYYLSVEKRQR, the amyloid nucleation score was “inactive”.
For FSGHILGRPFDGRSLVCMS, the amyloid nucleation score was “inactive”.
For FLIFDRSKCCCVDTRGSGGT, the amyloid nucleation score was “inactive”.

Compared with PTRDKVATEGHGNGLIYNRF, YKCRDLFGGRQINREHYLCY is lower in amyloid nucleation score: 0.306 ± 0.65 for the first, -1.26 ± 0.62 for the second.

Going from RNAEA to VLFCMSYKSARLEL, the amyloid nucleation score rises from -0.5 ± 0.63 to 6.08 ± 0.07.

Going from KSCGNGHISDVIYLRGMLGV to TLCMSRGNSYCCMQSFSEKD, the amyloid nucleation score rises from -0.538 ± 0.55 to 5.05 ± 0.063.

EWSVWRSAKWQFQARNGMQG and YYIALWVVGHMGYIDGCTSC are within error of each other in amyloid nucleation score: 2.05 ± 0.48 for the first, 2.45 ± 0.1 for the second.

Compared with RYLSLVFVYIVGVLYSSCDV, GCGSNSDLLHPGIFGLCKLV is lower in amyloid nucleation score: 0.383 ± 0.14 for the first, -0.3 ± 0.31 for the second.

KDLEFSISLMKVPNIWWHYR and SVCVWAYACRDRTPLLGRFC are within error of each other in amyloid nucleation score: 1.04 ± 0.17 for the first, 0.508 ± 0.56 for the second.

Going from HTDLTSKFFYLNWCGLSLLR to WSFHRR, the amyloid nucleation score falls from 3.39 ± 0.072 to -0.552 ± 0.36.

Going from IRNTLPAAIDVSATVTFVIL to FIDTLNYDWDIVLFWFLGEN, the amyloid nucleation score falls from 3.17 ± 0.12 to 0.021 ± 0.51.

Compared with GVDFTWDRGCIGGRGCSSRY, FNMDGYGRTGVRPFCRYVLN is lower in amyloid nucleation score: 5.956 ± 0.054 for the first, 0.333 ± 0.61 for the second.

TRSSNNPPGMVDT and EYMYYGFYCHYGSSVLAF are within error of each other in amyloid nucleation score: -0.959 ± 0.38 for the first, -0.731 ± 0.56 for the second.

Going from FLIVPKILNICL to MTYRSLPEYTDLLWVTYVER, the amyloid nucleation score falls from 7.746 ± 0.077 to 0.369 ± 0.46.

YHKAIFFGF and TRFLPDAY are within error of each other in amyloid nucleation score: -0.563 ± 0.64 for the first, -0.903 ± 0.32 for the second.

Going from LDTCVFHHLVGIEKATIYR to AYDIHTIREMFRSSSRLYGW, the amyloid nucleation score rises from 0.455 ± 0.48 to 5.854 ± 0.033.

Compared with LLPWSPLKVVTSGYSTF, KFCVRVYNYIVDRITSLMKT is higher in amyloid nucleation score: -1.03 ± 0.78 for the first, 3.22 ± 0.067 for the second.

MCVYCVDYWGACRLEILALW and NRSLD are within error of each other in amyloid nucleation score: -0.423 ± 0.41 for the first, -1.26 ± 0.54 for the second.

First: GYLYN
Second: KLLAVVLFGDGLAFNN
The amyloid nucleation score of the first is lower: -1.32 ± 1.1 for the first, 3.24 ± 0.064 for the second.

Going from IFHPSLTSRIPINTRHKVT to TVKCLYMGNGAWKTASSVCG, the amyloid nucleation score falls from 4.4 ± 0.065 to 0.482 ± 0.38.

Compared with SRSKGYLYGIMSAKLRCSLK, GLLVELWSLLIIRYNLSAYL is lower in amyloid nucleation score: 0.206 ± 0.39 for the first, -0.841 ± 0.48 for the second.

Compared with SAVHENVIGVFFGVLVYSNA, VEWKRRNRVRVSRCELWFCF is higher in amyloid nucleation score: 2.42 ± 0.1 for the first, 3.93 ± 0.087 for the second.

Going from RMGCLFCRESNWILSFYSVS to GVGVGLYKFLTPCFYGEDDE, the amyloid nucleation score falls from 5.87 ± 0.074 to 0.594 ± 0.57.

First: VWEVAMISTINSAGHLCLGD
Second: NWWLTHVHLVSFYVVSWGWV
The amyloid nucleation score of the first is lower: -0.109 ± 0.76 for the first, 3.35 ± 0.12 for the second.

CGTGARVCYCYGFKLSSARG and EYHFCTWFRVDIPFVFHDVV are within error of each other in amyloid nucleation score: 0.965 ± 0.6 for the first, -0.072 ± 1.1 for the second.

First: ANNVSGIIVCTNFDILMYGR
Second: LWFKCGHSIQGLVRVTESGS
The amyloid nucleation score of the first is higher: 7.791 ± 0.042 for the first, -0.15 ± 0.27 for the second.

FQMYTISLRRLVNNKSYARV and MFNACDNRKFCVGVCSDLK are within error of each other in amyloid nucleation score: 0.319 ± 0.8 for the first, 0.036 ± 0.41 for the second.

YRLVHNSKREPGWRSCEWDH and HSLSFLMNSFMRYRSCLVVA are within error of each other in amyloid nucleation score: 0.046 ± 0.63 for the first, -0.119 ± 0.26 for the second.

Compared with AADRFVAMKICVLCHLKQSL, FRMWGLC is lower in amyloid nucleation score: 1.88 ± 0.25 for the first, 0.43 ± 0.36 for the second.

First: SVYGQRNTIIFEFSWMRTAS
Second: MHRLPNNIPTGNQLPLQPSE
The amyloid nucleation score of the first is higher: 7.492 ± 0.04 for the first, -0.41 ± 0.48 for the second.

PCCRGRRSSLGRAIKGAEAK and LFCSYPNTASRKLAIGIVAS are within error of each other in amyloid nucleation score: 0.009 ± 0.23 for the first, 0.438 ± 0.55 for the second.

Going from RCEFFGVGMSREKNMGCSKC to GMPQESHSYPLYEMLLGRVG, the amyloid nucleation score falls from 0.875 ± 0.47 to -0.064 ± 0.3.

SNVTTYSNVSYIRHHSHYLG and SMFCVPFMINLVLYVMGEVW are within error of each other in amyloid nucleation score: 1.32 ± 0.44 for the first, 0.288 ± 0.64 for the second.

NICITHPH and YYFDPS are within error of each other in amyloid nucleation score: 0.299 ± 0.64 for the first, -0.961 ± 0.62 for the second.

RLSFNWSLKSYMLPLESSVV and SLSRLVLECNGKSVRHEKM are within error of each other in amyloid nucleation score: -0.079 ± 0.55 for the first, 0.393 ± 0.32 for the second.

SRCASKFVTWEAYYTVSVKR and VTPTEGCSVSHVRSRSLKNA are within error of each other in amyloid nucleation score: 0.25 ± 0.8 for the first, -0.511 ± 0.49 for the second.

Compared with ESFVRVLSFFCVSWYGSMVR, DIKAWLFVRSDIVDGGFADT is lower in amyloid nucleation score: 1.75 ± 0.24 for the first, -0.405 ± 0.29 for the second.

First: TCVALSYLVGGSALNS
Second: VSDSNFNNGRYWLSVWRDVV
The amyloid nucleation score of the first is lower: -0.818 ± 0.78 for the first, 4.25 ± 0.067 for the second.

Compared with IVILTC, SHLCHLGGSRRTQRVVEVSS is higher in amyloid nucleation score: 0.464 ± 0.26 for the first, 5.72 ± 0.064 for the second.

First: IFTYCVWSFSWFW
Second: YEPRSNLCCIINTIKFPKTI
The amyloid nucleation score of the first is higher: 7.302 ± 0.053 for the first, 6.169 ± 0.031 for the second.

First: QMISLYAKQGVFPFGLSCSC
Second: CYWERWAS
The amyloid nucleation score of the first is higher: 2.02 ± 0.11 for the first, -1.84 ± 0.78 for the second.

Compared with LGTSWHHRAKE, IYIMVTVF is lower in amyloid nucleation score: 3.31 ± 0.086 for the first, 0.086 ± 0.33 for the second.

VYSANSWH and IIWPPMSWELISLNCQCVRK are within error of each other in amyloid nucleation score: -0.364 ± 0.3 for the first, -0.413 ± 0.63 for the second.

First: VLSWGFKGNAKPHHTDSLKG
Second: WCMLRYCVESGLSVSFMHFS
The amyloid nucleation score of the first is higher: 0.603 ± 0.22 for the first, -0.626 ± 0.63 for the second.

DISVRTMFVS and LHSATNG are within error of each other in amyloid nucleation score: -0.392 ± 0.48 for the first, 0.208 ± 0.37 for the second.

EFGDQLSDYNWIVCMLGTYI and VLSDRKVY are within error of each other in amyloid nucleation score: -0.904 ± 1.1 for the first, 0.117 ± 0.79 for the second.

Compared with GNKLYFCSFAWLEVFKFKDL, NLRYVFRFII is higher in amyloid nucleation score: 1.86 ± 0.082 for the first, 2.9 ± 0.073 for the second.

First: IDKICFKTDLIVFCRGLNPC
Second: YRLAFKMRNHGYQVELGLSV
The amyloid nucleation score of the first is higher: 1.9 ± 0.19 for the first, -0.088 ± 1.1 for the second.

Compared with ILNLLLVCLRIFDGLYLTRY, RSGNRGPVARYVGYERCMGK is higher in amyloid nucleation score: -1.06 ± 1.1 for the first, 0.629 ± 0.56 for the second.

First: GFCPLVRPSCESFRLQERLV
Second: QAHVQILYKL
The amyloid nucleation score of the first is lower: -0.303 ± 0.63 for the first, 5.95 ± 0.054 for the second.

Compared with LQTAIVGSPRLVTFRIYIER, RRNNTGKHFWDWETREGFSM is lower in amyloid nucleation score: 7.197 ± 0.065 for the first, -0.931 ± 1.1 for the second.

DSVFNMTIADECFG and GNVRVECANLYRAVLPDMGH are within error of each other in amyloid nucleation score: -1.06 ± 1.1 for the first, -0.167 ± 0.63 for the second.

ETVGYN and TIKTALMYIMRYSFRSYRDF are within error of each other in amyloid nucleation score: 0.284 ± 1.1 for the first, -1.02 ± 0.61 for the second.

Going from SHTSCGMKVSLRICHSMGQR to LCNSYYFFDSCVIEPYIPLL, the amyloid nucleation score falls from 6.434 ± 0.057 to 5.646 ± 0.054.

LILALVPLLCWMVNGW and SFGENLVYCMRSIVTSPYRL are within error of each other in amyloid nucleation score: -0.567 ± 1.1 for the first, -0.364 ± 0.24 for the second.

Going from SGCASSSDTFDRSLCCEYTL to ENVCCGVGSVYKSMLAAPPW, the amyloid nucleation score rises from 0.295 ± 1 to 10.23 ± 0.056.

SVPRYRSLMKRCH and LWHESC are within error of each other in amyloid nucleation score: 0.189 ± 0.32 for the first, -0.119 ± 0.33 for the second.

Going from LIRQMYMGRFYAVNRENH to QAFPDLTVVRACYMHLL, the amyloid nucleation score rises from -0.743 ± 0.79 to 0.54 ± 0.25.

IKSSAFGAGVQLAAQRSVIT and LEYERC are within error of each other in amyloid nucleation score: -0.432 ± 0.29 for the first, -0.097 ± 1.1 for the second.

Compared with GAAHDSYMNRWLITWNSKCK, SGSALLIEFRYSTSFREKRI is higher in amyloid nucleation score: -1.52 ± 0.76 for the first, 5.687 ± 0.046 for the second.
